What follows are sequences tested on Escherichia coli TOP10 (assay: shrunken log2 fold change of peptide-encoding DNA abundance (4.5 h post-induction vs induction); higher = less antimicrobial activity (less host growth inhibition)). Conditions: time post-induction: 4.5 h; library: site-saturation at positions 5, 18, 19, 20.
With RRIRHRPPRLPRPRPRPAQSPRP the “shrunken log2 fold change” value was -0.0382. In the case of RRIRLRPPRLPRPRPRPCADPRP, the “shrunken log2 fold change” value is reported as 0.151. RRIRIRPPRLPRPRPRPRRHPRP was tested, and the “shrunken log2 fold change” value was -0.147. RRIRWRPPRLPRPRPRPFYCPRP was tested, and the “shrunken log2 fold change” value was -0.151. In the case of RRIRRRPPRLPRPRPRPPNFPRP, the “shrunken log2 fold change” value is reported as 0.0782. RRIRRRPPRLPRPRPRPYNGPRP was tested, and the “shrunken log2 fold change” value was -0.0173. For RRIRVRPPRLPRPRPRPISSPRP, the “shrunken log2 fold change” value was -0.136. In the case of RRIRHRPPRLPRPRPRPSVSPRP, the “shrunken log2 fold change” value is reported as -0.0167. RRIRVRPPRLPRPRPRPCYEPRP was tested, and the “shrunken log2 fold change” value was -0.246. With RRIRYRPPRLPRPRPRPRGMPRP the “shrunken log2 fold change” value was -0.019. RRIRVRPPRLPRPRPRPFKKPRP was tested, and the “shrunken log2 fold change” value was -0.115. RRIRNRPPRLPRPRPRPPTMPRP was tested, and the “shrunken log2 fold change” value was -0.126. For RRIRFRPPRLPRPRPRPECIPRP, the “shrunken log2 fold change” value was -0.04. With RRIRLRPPRLPRPRPRPPASPRP the “shrunken log2 fold change” value was 0.561. With RRIRKRPPRLPRPRPRPDADPRP the “shrunken log2 fold change” value was 0.163. RRIRARPPRLPRPRPRPVYKPRP was tested, and the “shrunken log2 fold change” value was -0.35. For RRIRHRPPRLPRPRPRPVTAPRP, the “shrunken log2 fold change” value was 0.0123. In the case of RRIRWRPPRLPRPRPRPHDTPRP, the “shrunken log2 fold change” value is reported as 0.0511. In the case of RRIRRRPPRLPRPRPRPWGCPRP, the “shrunken log2 fold change” value is reported as 0.0658. With RRIRARPPRLPRPRPRPTFIPRP the “shrunken log2 fold change” value was -0.18. In the case of RRIRIRPPRLPRPRPRPHVKPRP, the “shrunken log2 fold change” value is reported as -0.213. For RRIRERPPRLPRPRPRPPNGPRP, the “shrunken log2 fold change” value was 0.203. RRIRLRPPRLPRPRPRPRDRPRP was tested, and the “shrunken log2 fold change” value was 3.43. For RRIRRRPPRLPRPRPRPWTDPRP, the “shrunken log2 fold change” value was -0.131. With RRIRGRPPRLPRPRPRPGMRPRP the “shrunken log2 fold change” value was 1.68. For RRIRHRPPRLPRPRPRPKTYPRP, the “shrunken log2 fold change” value was -1.51. In the case of RRIRMRPPRLPRPRPRPQSDPRP, the “shrunken log2 fold change” value is reported as -0.00296. RRIRSRPPRLPRPRPRPITMPRP was tested, and the “shrunken log2 fold change” value was -0.639. For RRIRCRPPRLPRPRPRPPRLPRP, the “shrunken log2 fold change” value was 0.873. In the case of RRIRLRPPRLPRPRPRPVEIPRP, the “shrunken log2 fold change” value is reported as 0.0548. In the case of RRIRLRPPRLPRPRPRPWHHPRP, the “shrunken log2 fold change” value is reported as -0.0279. RRIRARPPRLPRPRPRPAPCPRP was tested, and the “shrunken log2 fold change” value was 0.638. For RRIRDRPPRLPRPRPRPRSEPRP, the “shrunken log2 fold change” value was -0.0682. With RRIRVRPPRLPRPRPRPRTLPRP the “shrunken log2 fold change” value was -0.222. With RRIRWRPPRLPRPRPRPDIQPRP the “shrunken log2 fold change” value was 0.27. In the case of RRIRWRPPRLPRPRPRPADPPRP, the “shrunken log2 fold change” value is reported as 0.372. With RRIRWRPPRLPRPRPRPHDDPRP the “shrunken log2 fold change” value was 0.0487. RRIRARPPRLPRPRPRPDWYPRP was tested, and the “shrunken log2 fold change” value was -0.213. With RRIRYRPPRLPRPRPRPEIDPRP the “shrunken log2 fold change” value was -0.0347. RRIRLRPPRLPRPRPRPCPNPRP was tested, and the “shrunken log2 fold change” value was 0.0236. RRIRWRPPRLPRPRPRPLSRPRP was tested, and the “shrunken log2 fold change” value was 0.141. In the case of RRIRHRPPRLPRPRPRPGPMPRP, the “shrunken log2 fold change” value is reported as 0.247. With RRIRHRPPRLPRPRPRPAKMPRP the “shrunken log2 fold change” value was 0.0344. For RRIRVRPPRLPRPRPRPMKWPRP, the “shrunken log2 fold change” value was -0.068. For RRIRQRPPRLPRPRPRPPFDPRP, the “shrunken log2 fold change” value was 0.283. RRIRPRPPRLPRPRPRPYIDPRP was tested, and the “shrunken log2 fold change” value was -0.331. For RRIRTRPPRLPRPRPRPMPMPRP, the “shrunken log2 fold change” value was 0.467. In the case of RRIRLRPPRLPRPRPRPYQTPRP, the “shrunken log2 fold change” value is reported as 0.0345. In the case of RRIRIRPPRLPRPRPRPNTWPRP, the “shrunken log2 fold change” value is reported as -0.406. For RRIRPRPPRLPRPRPRPCCWPRP, the “shrunken log2 fold change” value was 0.81. With RRIRARPPRLPRPRPRPTRHPRP the “shrunken log2 fold change” value was 0.615. RRIRSRPPRLPRPRPRPYFGPRP was tested, and the “shrunken log2 fold change” value was -0.642. RRIRGRPPRLPRPRPRPWYVPRP was tested, and the “shrunken log2 fold change” value was -2.24. For RRIRQRPPRLPRPRPRPGWYPRP, the “shrunken log2 fold change” value was 0.126. In the case of RRIRCRPPRLPRPRPRPIQHPRP, the “shrunken log2 fold change” value is reported as -1.21. RRIRERPPRLPRPRPRPDEIPRP was tested, and the “shrunken log2 fold change” value was -0.111. With RRIRARPPRLPRPRPRPTMVPRP the “shrunken log2 fold change” value was -0.0882. RRIRVRPPRLPRPRPRPMCCPRP was tested, and the “shrunken log2 fold change” value was -0.0676. For RRIRCRPPRLPRPRPRPQWQPRP, the “shrunken log2 fold change” value was 0.0413. With RRIRLRPPRLPRPRPRPEPQPRP the “shrunken log2 fold change” value was 0.728. For RRIRGRPPRLPRPRPRPVTVPRP, the “shrunken log2 fold change” value was 0.0499. For RRIRTRPPRLPRPRPRPFGWPRP, the “shrunken log2 fold change” value was 0.189. For RRIRPRPPRLPRPRPRPKSGPRP, the “shrunken log2 fold change” value was 0.356. RRIRFRPPRLPRPRPRPCRPPRP was tested, and the “shrunken log2 fold change” value was 0.0632. For RRIRMRPPRLPRPRPRPHSKPRP, the “shrunken log2 fold change” value was -0.0418. RRIRIRPPRLPRPRPRPKINPRP was tested, and the “shrunken log2 fold change” value was -0.881. For RRIRVRPPRLPRPRPRPICGPRP, the “shrunken log2 fold change” value was 0.0607. For RRIRARPPRLPRPRPRPDHIPRP, the “shrunken log2 fold change” value was -0.126. RRIRKRPPRLPRPRPRPIMKPRP was tested, and the “shrunken log2 fold change” value was 0.16. RRIRERPPRLPRPRPRPYDIPRP was tested, and the “shrunken log2 fold change” value was -0.136. With RRIRKRPPRLPRPRPRPMPRPRP the “shrunken log2 fold change” value was 0.276. In the case of RRIRPRPPRLPRPRPRPQEGPRP, the “shrunken log2 fold change” value is reported as -0.259. For RRIRTRPPRLPRPRPRPMYHPRP, the “shrunken log2 fold change” value was -0.0615. For RRIRTRPPRLPRPRPRPAMTPRP, the “shrunken log2 fold change” value was 0.126. For RRIRNRPPRLPRPRPRPWSAPRP, the “shrunken log2 fold change” value was -0.304.
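Note: peptides expressed intracellularly from a pBAD plasmid library in pooled LB shake-flask culture, induced with 0.3% L-arabinose, DNA abundance read by NGS, three biological replicates, DESeq2 with apeglm shrinkage.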
